Source: patent US10792311B2, “Stimulation of ovarian follicle development and oocyte maturation” (The Board of Trustees of the Leland Stanford Junior …, priority 2011, dated 2020)

Assays:
preantral follicles = assay: Preantral follicle culture; assay type: cell-based, mice; settings: preantral follicles of day 13 mice, four days
Excerpt: CNP treatment promoted the growth of preantral follicles and cultured ovarian explants: Preantral follicles (125-135 um in diameter) were isolated from ovaries of mice at day 13 of age and treated with different hormones for four days with daily monitoring of follicle diameters. […] In contrast, treatment with ANP was ineffective.
Dissection follicles of different sizes and culturing of preantral follicles: For RT-PCR analyses, early secondary follicles of 90-140 um in diameters were isolated from mice at day 13 of age whereas antral follicles (300-400 um in diameter) were isolated from prepubertal mice at day 23 of age. Preovulatory follicles (500-600 um in diameter) were isolated from prepubertal mice treated with eCG (5 IU). For follicle cultures, preantral follicles (125-145 um in diameter) were isolated from mice at day 13 of age and cultured individually in 96 well plates containing alpha-MEM (100 ul/well) with penicillin and streptomycin together with insulin, transferrin and selenium. […] The media were changed every two days and follicle growth was monitored daily by measuring follicle diameters.

ovaries from day 10 mice [1] = assay: Ovarian explant cultures treated with CNP and/or FSH; assay type: cell-based
Method: Ovarian explant cultures: Ovaries from day 10 mice were placed on culture plate inserts (Millipore, Bedford, Mass.) and cultured in 400 μl of DMEM/F12 containing 0.1% BSA (Sigma), 0.1% Albumax II, insulin-transferrin-selenium, 0.05 mg/ml L-ascorbic acid and penicillin-streptomycin under the membrane insert to cover ovaries with a thin layer of medium. […] Some explants were also treated with a pan-specific protein kinase G inhibitor, Rp-8-Br-PET-cGMPS (BioLog, Bremen, Germany). At the end of culture, ovaries were fixed in Bouin's solution, paraffin embedded, and cut into continuous sections before staining with hematoxylin and eosin.

ovaries from day 10 mice [2] = assay: Ovarian explant cultures treated with R-spondin2 and/or FSH; assay type: cell-based
Method: Ovarian explant cultures: Ovaries from day 10 mice were placed on culture plate insert (Millipore, Bedford, Mass.) and cultured in 400 μl of DMEM/F12 (Gibco) containing 0.1% BSA (Sigma), 0.1% Albumax II (Gibco), insulin-transferrin-selenium (Gibco), 0.05 mg/ml L-ascorbic acid (Sigma) and penicillin-streptomycin (Gibco) under the membrane insert to cover ovaries with a thin layer of medium. […] Explants treated with non-immune IgG or boiled (100 C, 15 min) R-spondin2 antibodies served as negative controls. At the end of culture, ovaries were fixed in Bouin's solution, paraffin embedded, and cut into continuous sections before staining with hematoxylin and eosin. Only follicles with clearly stained oocyte nucleus were counted to prevent recounting of the same follicle.

[3] = tested on: canonical Wnt signaling pathway; assay: TCF-luciferase assay in cultured ovarian somatic cells; assay type: cell-based; settings: somatic cells of day 10 mice; for TCF-luciferase activity: agent alone
Method: TCF-luciferase assay: Ovarian somatic cells from day 10 mice were cultured overnight at 37 C in McCoy's 5a medium containing 10% fetal bovine serum (FBS; Gibco) before evaluation of Wnt signaling based on the TCF-luciferase assay. Cells were transfected with 1 μg of pTOP FLASH or pFOP FLASH plasmid together with 0.1 μg of pRL-TK plasmid using lipofectamine 2000 (Invitrogen, Carlsbad, Calif.) for 6 h. […] Luciferase activity expressed as relative light unit was determined using a Dual Luciferase Reporter Assay Kit (Promega) with a luminometer (Bio-Rad).
Luciferase activity was measured as an index of Wnt signaling. […] To estimate the number of viable cells, cells were also cultured with increasing doses of R-spondin2 with or without Wnt3a before measurement of mitochondrial reductase (MTS) activity.

[4] = tested on: somatic cells obtained from day 10 ovaries; assay: Cell proliferation (MTS) assay of ovarian somatic cells; assay type: cell-based, mice; settings: for MTS activity (viable cell number): agent alone, 2 days
Method: Cell proliferation assay: Ovaries obtained from day 10 mice were digested with collagenase I, DNase, and trypsin. After centrifuging at 270×g for 10 min., cell pellet was washed and plated in a 96-well plate (BD Falcon, Franklin Lakes, N.J.) in McCoy's 5a medium (Gibco BRL, Grand Island, N.Y.) containing 4 mg/ml BSA (Sigma Aldrich Chemicals, St. Louis, Mo.), penicillin-streptomycin (Gibco) and sodium pyruvate (Gibco) for 3 h at 37 C. After washing twice with PBS to remove floating oocytes, cells were cultured in serum-free McCoy's 5a medium containing different factors for 48 h. MTS (3-(4,5-dimethylthiazol-2-yl)-5-(3-carboxymethoxyphenyl)-2-(4-sulfophenyl)-2H-tetrazolium) assay was performed using Cell Titer 96 Aqueous One Solution Cell Proliferation Assay (Promega, Madison, Wis.) by adding the substrate for 2 h before measuring absorbance at 490 nm.

intestinal stem cell = settings: 100 μg/adult mice; cited from earlier work
[5] = treatment with R-spondin2 and/or FSH

## Nc1nc2c(nc(Br)n2[C@@H]2O[C@@H]3COP(=O)(O)O[C@H]3[C@H]2O)c(=O)[nH]1 [8-bromo-cGMP, reference compound]
Preantral follicles
  Follicle size (diameter): induced

## CC[C@H](C)[C@@H]1NC(=O)[C@H](CCCNC(=N)N)NC(=O)[C@H](CC(=O)O)NC(=O)[C@H](CCSC)NC(=O)[C@H](CCCNC(=N)N)NC(=O)CNC(=O)CNC(=O)[C@H](Cc2ccccc2)NC(=O)[C@@H](NC(=O)[C@H](CO)NC(=O)[C@H](CO)NC(=O)[C@H](CCCNC(=N)N)NC(=O)[C@H](CCCNC(=N)N)NC(=O)[C@H](CC(C)C)NC(=O)[C@@H](N)CO)CSSC[C@@H](C(=O)N[C@@H](CC(N)=O)C(=O)N[C@@H](CO)C(=O)N[C@@H](Cc2ccccc2)C(=O)N[C@@H](CCCNC(=N)N)C(=O)N[C@@H](Cc2ccc(O)cc2)C(=O)O)NC(=O)CNC(=O)[C@H](CC(C)C)NC(=O)CNC(=O)[C@H](CO)NC(=O)[C@H](CCC(N)=O)NC(=O)[C@H](C)NC(=O)CNC1=O [ANP, reference compound]
Ovaries from day 10 mice [1]; day 10 ovaries, 4 days culture
  Ovarian weights of explants: not
Preantral follicles
  Follicle size (diameter): ineffective

## O=c1c2nc(Br)n([C@@H]3O[C@@H]4CO[P@@](O)(=S)O[C@H]4[C@H]3O)c2nc2[nH]c(-c3ccccc3)cn12 [Rp-8-Br-PET-cGMPs, Rp-8-Br-PET-cGMPS, reference compound]
Ovaries from day 10 mice [1]; explant culture
  Effect on stimulatory effects of CNP on ovarian weight: blocked the stimulatory effects of CNP
Ovaries from day 10 mice [1]; explant culture, FSH 100 ng/ml
  Effect on effects of a high dose of FSH on ovarian weight: partially suppressed the effects of a high dose of FSH

B1: DKK1: Dickkopf1, a Wnt signaling antagonist (protein, UniProt O94907 32-266, looked up)
Dickkopf-related protein 1: TLNSVLNSNAIKNLPPPLGGAAGHPGSAVSAAPGILYPGGNKYQTIDNYQPYPCAEDEECGTDEYCASPTRGGDAGVQICLACRKRRKRCMRHAMCCPGNYCKNGICVSSDQNHFRGEIEETITESFGNDHSTLDGYSRRTTLSSKMYHTKGQEGSVCLRSSDCASGLCCARHFWSKICKPVLKEGQVCTKHRRKGSHGLEIFQRCYCGEGLSCRIQKDHHQASNSSRLHTCQRH
Ovaries from day 10 mice [2]; explant cultures
  Effect on stimulatory effects of FSH on ovarian growth: not blocked
[3]
  Effect on R-spondin2- and Wnt3a-stimulated TCF-luciferase activity: blocked the stimulatory effects

B2: R-spondin2: secreted protein that regulates beta-catenin; oocyte-derived paracrine factor; recombinant human R-spondin2 (protein, UniProt Q6UXX9 22-243, looked up)
R-spondin-2: QGNRWRRSKRASYVSNPICKGCLSCSKDNGCSRCQQKLFFFLRREGMRQYGECLHSCPSGYYGHRAPDMNRCARCRIENCDSCFSKDFCTKCKVGFYLHRGRCFDECPDGFAPLEETMECVEGCEVGHWSEWGTCSRNNRTCGFKWGLETRTRQIVKKPVKDTILCPTIAESRRCKMTMRHCPGGKRTPKAKEKRNKKKKRKLIERAQEQHSVFLATDRANQ
Ovaries from day 10 mice [2]; 4 days culture
  Ovarian follicle development (morphological analyses): promotion of ovarian follicle development
Ovaries from day 10 mice [2]; 4 days culture, combined with FSH
  Ovarian weight of explants, R-spondin2 and FSH added together: further increases
Ovaries from day 10 mice [2]; day 10 ovaries, 4 days culture
  Ovarian weight of explants: increased ovarian weight in a dose-dependent manner
Ovaries from day 10 mice [2]; [5]
  Percentage of primordial and degenerated follicles: negligible changes
  Ratio of primary and percentage of secondary follicles: decreased the ratio of primary follicles accompanied by increases in the percentage of secondary follicles
[4]
  MTS activity (viable cell number): stimulated MTS activity in a dose-dependent manner
[4]; combined with Wnt3a
  MTS activity with both Wnt3a and R-Spondin2: further increases in MTS activity
[3]; 18 h, combined with Wnt3a
  TCF-luciferase activity in the presence of both Wnt3a and R-spondin2: synergistic increases
[3]; 18 h
  TCF-luciferase activity: minimal stimulation

B3: R-spondin1: secreted glycoprotein of the R-spondin family that synergizes with Wnts to activate β-catenin-dependent signaling (protein, UniProt Q2MKA7 21-263, looked up)
R-spondin-1: SRGIKGKRQRRISAEGSQACAKGCELCSEVNGCLKCSPKLFILLERNDIRQVGVCLPSCPPGYFDARNPDMNKCIKCKIEHCEACFSHNFCTKCKEGLYLHKGRCYPACPEGSSAANGTMECSSPAQCEMSEWSPWGPCSKKQQLCGFRRGSEERTRRVLHAPVGDHAACSDTKETRRCTVRRVPCPEGQKRRKGGQGRRENANRNLARKESKEAGAGSRRRKGQQQQQQQGTVGPLTSAGPA
Intestinal stem cell
  Intestinal stem cell proliferation and intestinal growth: stimulate intestinal stem cell proliferation and intestinal growth

B4: Wnt3a: Wnt ligand (protein, UniProt P56704 19-352, looked up)
Protein Wnt-3a: SYPIWWSLAVGPQYSSLGSQPILCASIPGLVPKQLRFCRNYVEIMPSVAEGIKIGIQECQHQFRGRRWNCTTVHDSLAIFGPVLDKATRESAFVHAIASAGVAFAVTRSCAEGTAAICGCSSRHQGSPGKGWKWGGCSEDIEFGGMVSREFADARENRPDARSAMNRHNNEAGRQAIASHMHLKCKCHGLSGSCEVKTCWWSQPDFRAIGDFLKDKYDSASEMVVEKHRESRGWVETLRPRYTYFKVPTERDLVYYEASPNFCEPNPETGSFGTRDRTCNVSSHGIDGCDLLCCGRGHNARAERRREKCRCVFHWCCYVSCQECTRVYDVHTCK
[4]
  MTS activity (viable cell number): stimulated MTS activity in a dose-dependent manner
[3]; 18 h
  TCF-luciferase activity: minimal stimulation
